This note sets out measurements from publication PMC8244513 (Current Research in Structural Biology, 2020).

The series deals with the molecule itself. Nature of the series: native gel or EMSA.

B1: ZnT8B-G3H6 (amino-terminal truncated, 35 kDa isoform of human zinc transporter ZnT8 / SLC30A8) (natural protein)
chain: MYHCHSGSKPTEKGANEYAYAKWKLCSASAICFIFMIAEVVGGHIAGSLAVVTDAAHLLIDLTSFLLSLFSLWLSSKPPSKRLTFGWHRAEILGALLSILCIWVVTGVLVYLACERLLYPDYQIQATVMIIVSSCAVAANIVLTVVLHQRCLGHNHKEVQANASVRAAFVHALGDLFQSISVLISALIIYFKPEYKIADPICTFIFSILVLASTITILKDFSILLMEGVPKSLNYSGVKELILAVDGVLSVHSLHIWSLTMNQVILSAHVATAASRDSQVVRREIAKALSKSFTMHSLTIQMESPVDQDPDCLFCEDPCD
For the protein B1, the “stoichiometry N” value is 2.
